For 1 substance, K results are on record in patent US20060287236A1.

This experiment deals with transferrin receptor (TfR) (human) (UniProt P02786). The experiment in a line: HeLa cell based 125I-transferrin assay.
transferrin receptor (TfR) (human), sequence (P02786 whole entry): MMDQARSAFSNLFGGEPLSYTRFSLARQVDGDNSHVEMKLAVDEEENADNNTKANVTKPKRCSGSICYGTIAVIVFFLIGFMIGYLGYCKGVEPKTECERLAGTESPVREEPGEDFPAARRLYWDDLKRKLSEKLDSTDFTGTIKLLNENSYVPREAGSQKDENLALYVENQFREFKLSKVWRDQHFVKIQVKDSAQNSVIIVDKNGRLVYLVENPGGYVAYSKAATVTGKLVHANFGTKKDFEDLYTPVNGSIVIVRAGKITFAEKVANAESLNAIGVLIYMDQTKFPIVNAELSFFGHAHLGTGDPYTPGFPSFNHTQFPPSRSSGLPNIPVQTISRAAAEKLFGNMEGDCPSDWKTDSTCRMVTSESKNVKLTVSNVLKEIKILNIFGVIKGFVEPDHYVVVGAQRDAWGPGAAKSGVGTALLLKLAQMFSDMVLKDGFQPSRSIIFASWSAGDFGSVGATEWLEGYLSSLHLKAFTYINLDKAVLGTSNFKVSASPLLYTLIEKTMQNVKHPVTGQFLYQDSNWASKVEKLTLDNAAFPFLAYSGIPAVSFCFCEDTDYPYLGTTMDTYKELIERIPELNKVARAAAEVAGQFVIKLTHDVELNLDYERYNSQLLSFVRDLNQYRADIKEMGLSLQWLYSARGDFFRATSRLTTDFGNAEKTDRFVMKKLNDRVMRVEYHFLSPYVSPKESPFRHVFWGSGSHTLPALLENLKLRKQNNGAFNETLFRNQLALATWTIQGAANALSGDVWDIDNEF

In turn, “soluble H63D-HFE/β2m heterodimer (from UniProt P61769 21-119)” had a K of 105 nM.
